In patent US20250270315A1 (ELPISCIENCE SUZHOU BIOPHARMA, published 2025):
Where two headings read alike, the source gives them in different places.

Experiments:
[1] = biological target: T1, human SIRPβL ECD recombinant protein (6×His tagged) (human, UniProt Q5TFQ8 30-371); test: ELISA, recombinant human SIRPβL (SIRPβI) ECD
T1 construct: given variously as SIRPBL, SIRPBI and SIRPβI; Bought from Biointron; also called human SIRPBL ECD; human SIRPBI ECD
Excerpt: Binding activity of the purified chimeric antibodies against SIRPβ and SIRPBI was detected by ELISA assay using recombinant proteins of human SIRPβ ECD (FIGS. 3A and 3B), human SIRPBI ECD (FIGS. 3D and 3E) and FACS assay using CHOK 1 cells stably expressing human SIRPB (FIG. 3C).

[2] = biological target: T2, Human SIRPα v1 (antigen of the Octet and Biacore affinity measurements) (human, UniProt P78324 31-370, limits assumed); test: BLI (Octet), 1:1 binding model
T2 sequence (P78324 31-370 limits assumed): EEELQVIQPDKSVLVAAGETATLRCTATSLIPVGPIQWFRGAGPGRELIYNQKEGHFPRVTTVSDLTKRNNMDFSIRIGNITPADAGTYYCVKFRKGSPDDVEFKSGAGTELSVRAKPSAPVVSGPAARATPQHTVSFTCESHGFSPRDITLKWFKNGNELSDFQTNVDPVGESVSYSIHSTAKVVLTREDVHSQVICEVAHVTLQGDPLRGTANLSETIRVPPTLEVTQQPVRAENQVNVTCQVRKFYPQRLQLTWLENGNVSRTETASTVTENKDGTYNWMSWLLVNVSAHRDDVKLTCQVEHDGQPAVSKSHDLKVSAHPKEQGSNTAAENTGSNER
Protocol: The purified chimeric antibodies were characterized for binding affinity against human SIRPα v1, human SIRPα v2 using Bio-Layer Interferometry technology (Octet system). The association and dissociation curves were fit with 1:1 binding model, and the Ka/Kd/KD values for each antibody were calculated.

[3] = biological target: T3, full length human SIRPα v1 stably expressed on CHOK1 or 293F cells (human, UniProt P78324 31-504); test: FACS, CHOK1-hSIRPα v1 cells
T3 construct: whole, on cells; also called CHOK1-human SIRPα v1; CHOK1-hSIRPα v1
T3 sequence (P78324 31-504): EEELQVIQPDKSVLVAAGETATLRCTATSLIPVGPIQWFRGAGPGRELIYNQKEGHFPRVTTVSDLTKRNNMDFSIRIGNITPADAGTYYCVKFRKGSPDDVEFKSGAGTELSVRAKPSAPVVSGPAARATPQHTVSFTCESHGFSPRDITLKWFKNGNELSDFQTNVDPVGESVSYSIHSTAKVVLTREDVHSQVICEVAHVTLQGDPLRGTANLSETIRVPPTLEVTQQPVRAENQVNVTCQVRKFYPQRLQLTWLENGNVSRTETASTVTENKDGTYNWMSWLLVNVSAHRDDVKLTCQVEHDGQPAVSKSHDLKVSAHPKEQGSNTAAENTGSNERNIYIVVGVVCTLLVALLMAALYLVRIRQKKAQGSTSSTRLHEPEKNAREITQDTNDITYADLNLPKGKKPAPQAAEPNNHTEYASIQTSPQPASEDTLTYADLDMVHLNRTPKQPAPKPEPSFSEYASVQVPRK
Excerpt: (§1) All the humanized antibodies as tested were confirmed to retain the similar activity as the parental antibody of 025c to bind to SIRP family members.

[4] = biological target: T4, human SIRPα v1 ECD recombinant protein (tag not given) (human, UniProt P78324 31-373); test: competitive ELISA, mFc-CD47 ECD on coated SIRPα v1 ECD
T4 construct: extracellular domain; also called biotin labeled soluble human SIRPα v1 ECD recombinant protein; ELISA microplate coated human SIRPα v1 ECD
T4 sequence (P78324 31-373): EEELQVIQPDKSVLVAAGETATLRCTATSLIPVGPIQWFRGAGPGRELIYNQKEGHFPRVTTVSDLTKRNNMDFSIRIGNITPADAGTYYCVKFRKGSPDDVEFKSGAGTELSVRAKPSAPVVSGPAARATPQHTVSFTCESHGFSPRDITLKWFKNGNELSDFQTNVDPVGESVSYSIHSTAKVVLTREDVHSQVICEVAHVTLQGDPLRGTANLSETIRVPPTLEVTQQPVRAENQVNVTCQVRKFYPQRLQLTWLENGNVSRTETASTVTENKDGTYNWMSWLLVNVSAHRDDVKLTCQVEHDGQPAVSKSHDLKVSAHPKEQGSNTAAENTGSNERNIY
Protocol: (§2) Competitive ELISA assay was used to determine whether the purified chimeric antibodies can block CD47 and SIRPα interaction. Briefly, antibody and mFc tagged human CD47 ECD recombinant protein were co-incubated with ELISA microplate coated human SIRPα v1 ECD (FIGS. 6A and 6B) or human SIRPα v2 ECD (FIGS. 7A and 7B) recombinant protein. After washing, HRP labeled anti-mouse Fc 2nd antibody (Sigma) was added and incubated at 37° C. for 1 hour. Then, 100 μl/well of TMB solution (Biotechnology) was added. After incubation for 15 minutes at room temperature, the reaction was stopped by the addition of 50 μl of 1N HCl. OD 450 nm was read. Blocking ratio was determined by blockade of human CD47 ECD recombinant protein binding to ELISA microplate coated human SIRPα ECD recombinant protein. Other than 005, all antibodies as tested can block interaction between human CD47 and different human SIRPα variants.
The humanized antibodies were tested for the ability to block CD47 and SIRPα interaction with competitive ELISA assay (refer to methods described in Example 4.2.3.).

[5] = biological target: T5, C57BL/6 mouse SIRPα ECD recombinant protein (6×His tagged) (C57BL/6 mouse, UniProt P97797 32-373); test: ELISA, recombinant C57BL/6 mouse SIRPα ECD
T5 construct: extracellular domain; Bought from Biointron; not shown: 6×His tag
T5 sequence (looked up): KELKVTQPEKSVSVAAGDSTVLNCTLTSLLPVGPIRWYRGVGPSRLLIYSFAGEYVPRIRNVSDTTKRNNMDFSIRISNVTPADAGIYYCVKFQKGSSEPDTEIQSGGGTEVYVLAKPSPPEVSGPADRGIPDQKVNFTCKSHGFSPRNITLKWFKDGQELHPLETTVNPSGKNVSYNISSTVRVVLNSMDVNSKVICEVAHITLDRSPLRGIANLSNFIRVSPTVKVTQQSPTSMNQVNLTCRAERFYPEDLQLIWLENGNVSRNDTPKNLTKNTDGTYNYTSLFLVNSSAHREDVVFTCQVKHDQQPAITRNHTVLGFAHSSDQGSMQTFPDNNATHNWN
Excerpt: Species cross reactivity of purified chimeric antibodies was detected by ELISA assay using recombinant protein of C57BL/6 mouse SIRPα ECD (FIG. 5A) and FACS assay using CHOK 1 cells stably expressing cyno SIRPα (FIGS. 5B and 5C). All antibodies as tested bind to cyno SIRPα at different levels but have no species cross reactivity against C57BL/6 mouse SIRPα.

[6] = biological target: T6, full length human SIRPα v1 with a small beta-gal fragment (ED) fused to its C-terminal, expressed in K562 … (human, UniProt P78324 31-504); test: cell-based or functional assay
T6 sequence (P78324 31-504): as the sequence (P78324 31-504) above

[7] = biological target: T2, Human SIRPα v1 (antigen of the Octet …); test: SPR (Biacore), 1:1 binding model
Protocol: The humanized antibodies were characterized for binding affinity against human SIRPα v1, human SIRPα v2 using Surface Plasmon Resonance technology (Biacore system). The association and dissociation curves were fit with 1:1 binding model, and the Ka/Kd/KD values for each antibody were calculated.

[8] = biological target: T4, human SIRPα v1 ECD recombinant protein …; test: competitive ELISA, coated human SIRPα v1 ECD, blocked ligand mFc tagged human CD47 ECD
Protocol: as §2

[9] = biological target: T7, human SIRPβ stably expressed on CHOK1 cells (human, UniProt O00241 30-398); test: FACS, CHOK1 cells stably expressing human SIRPβ
T7 construct: whole, on cells; also called CHOK1-human SIRPB; CHOK1-hSIRPβ
T7 sequence (O00241 30-398): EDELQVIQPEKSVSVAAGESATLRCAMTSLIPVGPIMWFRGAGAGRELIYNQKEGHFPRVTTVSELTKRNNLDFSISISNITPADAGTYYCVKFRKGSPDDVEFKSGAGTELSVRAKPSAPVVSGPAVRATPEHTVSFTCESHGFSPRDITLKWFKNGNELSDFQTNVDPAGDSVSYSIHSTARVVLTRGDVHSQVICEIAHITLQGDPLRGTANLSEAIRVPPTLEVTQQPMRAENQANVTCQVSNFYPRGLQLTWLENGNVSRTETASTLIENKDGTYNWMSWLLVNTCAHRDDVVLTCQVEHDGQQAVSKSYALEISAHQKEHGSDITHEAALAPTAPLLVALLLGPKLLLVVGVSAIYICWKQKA
Excerpt: as §1

[10] = biological target: T6, full length human SIRPα v1 with a small …; test: cell-based or functional assay; remark: listed apart in the source
[11] = biological target: T4, human SIRPα v1 ECD recombinant protein …; test: competitive ELISA, mFc-CD47 ECD on coated SIRPα v1 ECD; remark: listed apart in the source
Protocol: as §2

[12] = biological target: T7, human SIRPβ stably expressed on CHOK1 …; test: FACS, CHOK1-hSIRPβ cells (columns c6 and c7 read as swapped)
Excerpt: as §1

T1 sequence (Q5TFQ8 30-371 limits assumed): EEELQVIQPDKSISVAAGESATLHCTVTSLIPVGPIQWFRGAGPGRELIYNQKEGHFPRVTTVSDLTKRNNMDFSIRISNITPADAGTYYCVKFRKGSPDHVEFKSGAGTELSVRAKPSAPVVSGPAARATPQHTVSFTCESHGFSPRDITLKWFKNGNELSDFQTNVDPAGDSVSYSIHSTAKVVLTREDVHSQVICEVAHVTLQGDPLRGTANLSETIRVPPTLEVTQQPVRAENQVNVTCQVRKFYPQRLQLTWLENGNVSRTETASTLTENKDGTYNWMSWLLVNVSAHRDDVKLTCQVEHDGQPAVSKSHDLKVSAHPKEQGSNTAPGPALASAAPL

B1: 025c (antibody, V domains shown)
VH: EVQLQQSGAELVKPGASVKLSCTASGFNIKDYYMHWVKQRTEQGLEWIGRIDPEDGETKYAPKFQGKATITADTSSNTAYLQLSSLTSEDTAVYYCDRGLAYWGQGTLVTVSA
VL: QIVLTQSPAIMSASPGEKVTLTCSASSSVSSSYLYWYQQKPGSSPKLWIYSTSNLASGVPARFSGSGSGTSYSLTISSMEAEDAASYFCHQWSSYPYTFGGGTKLEIK
notes: also called chimeric antibody 025c; parental antibody of 025c
B1 was tested, and the “EC50 (read off the curve)” value [1] was roughly 0.4 nM, the Kd [2] was 2.46 nM and the koff [2] was 0.00156 s⁻¹. The kon [2] was 636000 M⁻¹ s⁻¹, the EC50 [3] was 1.22 nM and the “TOP MFI” value [3] was 64700 MFI. For the same binder, the IC50 [4] was 2.03 nM, the “TOP blocking (%)” value [4] was 97.5% and the binding result [5] was “no binding”. For the same binder, the “SHP-1 recruitment blocking, IC50” value [6] was 0.28 nM, the “SHP-1 recruitment blocking, TOP blocking (%)” value [6] was 84.5% and the Kd [7] was 1.53 nM. The koff [7] was 0.000924 s⁻¹, the kon [7] was 602000 M⁻¹ s⁻¹ and the “IC50 (read off the curve)” value [8] was 2 to 3 nM. The “EC50 (read off the curve)” value [9] was roughly 0.7 nM, the “SHP-1 recruitment blocking, IC50” value [10] was 0.08 nM and the “SHP-1 recruitment blocking, TOP blocking (%)” value [10] was 87%. The IC50 [11] was 2.12 nM, the “TOP blocking (%)” value [11] was 96.5% and the EC50 [12] was 0.65 nM. For the same binder, the “TOP MFI” value [12] was 72300 MFI.
